In general, stoichiometry N refers to the number of molecules, sites or subunits per partner or assembly.

Assay [1] has as its target Cfl1 (Cif-like epoxide hydrolase 1) from Burkholderia cenocepacia strain J2315 / K56-2 (Burkholderia cenocepacia strain K56-2 (identical to strain J2315)). Description: crystal structure; hanging drop vapor diffusion; X-ray, 2.2 Å; molecular replacement with a Cif monomer.
In assay [2] the target is Cfl2 (Cif-like epoxide hydrolase 2) from Burkholderia cenocepacia strain HI2424 (Burkholderia cenocepacia strain HI2424). The description is as above.

In turn, “Cfl1 (Cif-like epoxide hydrolase 1) from Burkholderia cenocepacia strain J2315 / K56-2 (enzyme)” returned a stoichiometry N in assay [1] of 8.
In assay [2], “Cfl2 (Cif-like epoxide hydrolase 2) from Burkholderia cenocepacia strain HI2424 (enzyme)” displayed a stoichiometry N of 10.

Values taken from PMC8244358.
